# Laboratory results taken from patent US20220017611A1 (INSERM INSTITUTE NATIONAL DE LA SANT ET DE LA RECHERCHE M …, published 2022).
# Substitutions are numbered along the chain they refer to. In names and notes the source's numbering stands.
# T1: His-SUMO-Tau peptide Tau[273-318] (human, UniProt O02828 235-280 (Capra hircus entry), not fully specified)
# T1 construct: SUMO domain fused at its C-terminus to the Tau peptide [273-318]; also called fused peptide; not shown: The N-terminal HisTag, the SUMO3 domain and any linker from vector pETNKI-HisSUMO3-LIC
# T1 peptide: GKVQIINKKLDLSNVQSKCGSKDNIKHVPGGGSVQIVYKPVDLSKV
# B1: VHH Z70 (VHH)
# VHH: EVQLQASGGVFVQSGGSLRLSCAASGATSTFDGMGWFRQAPGKEREFVSAISYEQGSYTYYADSVKGRFTISRDNSKNMVYLQMNSLRAEDTATYYCAPAYEGDLYAFDSYGGQGTQVTVSS
# notes: E4-1 with G12V, P16S, T81M and W114G; It may be the form actually produced from pHEN2; also called single domain antibody Z70; optimized VHH Z70
# B2: VHH Mut3 (VHH)
# VHH: B1 VHH with R45K
# notes: Variant of Z70; also called VH Mut3
# B3: VHH Mut20 (VHH)
# VHH: B1 VHH with R45K, G113E
# notes: Variant of Z70; also called VH Mut20
# B4: VHH Mut1 (VHH)
# VHH: B1 VHH with G113E
# notes: Variant of Z70; also called VH Mut1
# B5: VHH Mut12 (VHH)
# VHH: AEVQLQASGGVFVQSGGSLRLCCAASGATSTFDGMGWFRQAPGKEREFVSAISYEQGSYTYYADSVKGRFTISRDNSKNMVYLQMNSLRAEDTATYYCAPAYEGDLYAFDSYGEQGTQVTVSS
# notes: Variant of Z70; also called VH Mut12
# B6: VHH Mut5 (VHH)
# VHH: B1 VHH with T94S
# notes: Variant of Z70; also called VH Mut5
# B7: VHH Mut9 (VHH)
# VHH: B1 VHH with P99S, G113E
# notes: Variant of Z70; also called VH Mut9
# B8: VHH Mut14 (VHH)
# VHH: B1 VHH with T30I, E54G, G113E
# notes: Variant of Z70; also called VH Mut14
# B9: VHH Mut15 (VHH)
# VHH: B1 VHH with R88G, P99S, G112E
# notes: Variant of Z70; also called VH Mut15
# B10: VHH E4-1 (VHH)
# VHH: B1 VHH with V10G, S14P, M79T, G112W
# notes: Selected from the synthetic Nali-H1 phage library; also called lead VHH E4-1
# Target: T2, recombinant full-length Tau protein, longest isoform (Tau 2N4R) (human, UniProt P10636-8 1-441, biotinylated with NHS-biotin for SPR; 15N-labelled for NMR)
# T2 construct: range 1-441; Expressed in E. coli from pET15b-Tau; also called biotinylated-Tau; 15N-Tau
# T2 sequence (P10636 other isoform, or with tags, fused parts or gaps limits assumed): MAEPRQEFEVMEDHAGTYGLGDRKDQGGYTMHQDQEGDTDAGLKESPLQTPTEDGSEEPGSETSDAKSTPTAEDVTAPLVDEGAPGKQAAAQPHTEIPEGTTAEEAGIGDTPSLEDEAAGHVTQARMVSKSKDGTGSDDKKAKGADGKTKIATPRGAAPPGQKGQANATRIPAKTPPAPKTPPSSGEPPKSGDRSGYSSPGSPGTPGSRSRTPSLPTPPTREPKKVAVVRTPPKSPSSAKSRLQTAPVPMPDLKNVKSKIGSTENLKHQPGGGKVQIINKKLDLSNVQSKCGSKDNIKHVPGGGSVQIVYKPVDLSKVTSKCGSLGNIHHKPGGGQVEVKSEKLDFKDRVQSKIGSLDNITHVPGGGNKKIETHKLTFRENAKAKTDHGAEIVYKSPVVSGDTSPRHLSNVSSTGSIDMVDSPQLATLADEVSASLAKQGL
# Experiment: SPR (Biacore T200), single-cycle kinetics, biotinylated Tau on streptavidin chip, VHH injected 0.125-2 µM
# Protocol: (§1) Affinity measurements were performed on a BIAcore T200 optical biosensor instrument (GE Healthcare). Recombinant Tau proteins were biotinylated with 5 molar excess of NHS-biotin conjugates (Thermofisher) during 4 hours at 4° C. Capture of biotinylated Tau was performed on a streptavidin SA sensorchip in HBS-EP+ buffer (GE Healthcare). One flow cell was used as a reference to evaluate nonspecific binding and provide background correction. Biotinylated-Tau was injected at a flow-rate of 30 μL/min, until the total amount of captured Tau reached 500 resonance units (RUs). VHHs were injected sequentially with increasing concentrations ranging between 0.125 and 2 μM in a single cycle, with regeneration (3 successive washes of 1M NaCl) between each VHH. Single-Cycle Kinetics (SCK) analysis⁵² was performed to determine association kon and dissociation Koff rate constants by curve fitting of the sensorgrams using the 1:1 Langmuir model of interaction of the BIAevaluation sotware 2.0 (GE Healthcare). Dissociation equilibrium constants (Kd) was calculated as kon/Koff.
Binder,Kd [nM],koff [s⁻¹],kon [M⁻¹ s⁻¹]
B1,147,0.00267,18100
B2,80.5,0.0021,26000
B3,41.8,0.00089,21200
B4,22.6,0.00242,107000
B5,61.1,0.00207,33900
B6,80.8,0.000883,10900
B7,51,0.00205,40100
B8,74.2,0.0014,18800
B9,95.6,0.00203,21300

# Target: T1, His-SUMO-Tau peptide Tau[273-318]
# Experiment: SPR, single-cycle kinetics, VHH Z70 immobilized on the chip, SUMO-Tau[273-318] injected 0.125-2 µM
# Protocol: as §1, with “VHH. On the other hand, VHH Z70 was immobilized on a CMS chip in HBS-EP+ buffer (GE Healthcare) and increasing concentrations, ranging between 0.125 and 2 μM of the SUMO-Tau peptide, were successively injected.” for “VHH.”, “(KD)” for “(Kd)”, “[…]. […]” for “kon/Koff.”
row,Binder,Kd [nM]
1,B1,85

# Target: T2, recombinant full-length Tau protein, …
# Experiment: SPR, biotinylated Tau on streptavidin chip (the best mutant is Mut1 by Table 4)
# Protocol: as §1
# A mutant library of VHH Z70 has been screened for mutants displaying a stronger affinity in yeast two-hybrid system as described above. 8 mutants were selected and their affinity have been further characterized using SPR experiments.
row,Binder,fold improvement of KD against VHH Z70 [fold]
1,B4,> 6

# Target: T2, recombinant full-length Tau protein, …
# Experiment: SPR (Biacore T200), single-cycle kinetics, biotinylated Tau on streptavidin chip, VHH injected 0.125-2 µM
# Remark: another data set of the same source
# Protocol: as §1, with “VHH. On the other hand, VHH Z70 was immobilized on a CMS chip in HBS-EP+ buffer (GE Healthcare) and increasing concentrations, ranging between 0.125 and 2 μM of the SUMO-Tau peptide, were successively injected.” for “VHH.”, “(KD)” for “(Kd)”
Binder,Kd [nM],koff [s⁻¹],kon [M⁻¹ s⁻¹]
B10,345,0.0017,4980
B1,147,0.0026,18100

# Target: T2, recombinant full-length Tau protein, …
# Experiment: cell-based or functional assay
Binder,"Thioflavin T fluorescence signal (% of positive control), 1:1 Tau:VHH E4-1 molar ratio [%]","maximal Thioflavin T fluorescence signal (% of positive control), molar ratio 1:0.25 Tau:VHH E4-1 [%]","time to gain 50% of maximal Thioflavin T signal, 1:1 Tau:VHH E4-1 molar ratio [h]","time to gain 50% of maximal Thioflavin T signal, molar ratio 1:0.25 Tau:VHH E4-1 (2.5 h for the positive control) [h]","maximal Thioflavin T fluorescence signal (% of positive control), 1:1 Tau:VHH Z70 molar ratio [%]"
B10,58.3,86.9,> 12.8,~3.8,–
B1,–,–,–,–,4.1
